Assays:
HeLa Kyoto [1] = assay: solubility in G1/S (NP-40 vs SDS abundance) (log2 ratio); higher = more soluble; details: cell cycle stage: G1/S
HeLa Kyoto [2] = assay: solubility change mitosis vs G1/S (difference of NP-40 vs SDS log2 ratios) (log2 ratio difference); higher = more soluble in mitosis
HeLa Kyoto [3] = assay: thermal stability score vs G1/S (z-score of summed log2 fold changes over temperatures); higher = more thermally stable than in G1/S
HeLa Kyoto [4] = assay: melting temperature (median over replicates), in situ; higher = more thermally stable
[5] = cell cycle stage: early G1 (4.5 h after nocodazole release)
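Throughout, for melting temperature (median over replicates), in situ: HeLa Kyoto cells synchronized by double thymidine or nocodazole block, proteins quantified by TMT10plex mass spectrometry, three independent biological replicates.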
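Throughout, for solubility change mitosis vs G1/S (difference of NP-40 vs SDS log2 ratios): synchronized HeLa Kyoto cells (double thymidine block for G1/S, nocodazole release for mitosis), protein amounts in NP-40 versus SDS lysates quantified by mass spectrometry, three biological replicates.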
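Throughout, for solubility in G1/S (NP-40 vs SDS abundance): HeLa Kyoto cells arrested at G1/S by double thymidine block, proteins quantified by TMT10plex mass spectrometry in mild NP-40 versus SDS extracts, three biological replicates.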
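Throughout, for thermal stability score vs G1/S (z-score of summed log2 fold changes over temperatures): synchronized HeLa Kyoto cells, proteins quantified by TMT10plex mass spectrometry, three biological replicates, mitosis taken 0.5 h after nocodazole release, G1/S directly after double thymidine block.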

Sequence | solubility in G1/S (log2) (HeLa Kyoto [1]) | solubility change mitosis (log2) (HeLa Kyoto [2]) | thermal stability score (HeLa Kyoto [3]; [5]) | thermal stability score (HeLa Kyoto [3]; cell cycle stage: mitosis) | melting temperature (HeLa Kyoto [4]; cell cycle stage: G1/S) | melting temperature (HeLa Kyoto [4]; cell cycle stage: mitosis)
MSRPPPTGKMPGAPETAPGDGAGASRQRKLEALIRDPRSPINVESLLDGLNSLVLDLDFPALRKNKNIDNFLNRYEKIVKKIRGLQMKAEDYDVVKVIGRGAFGEVQLVRHKASQKVYAMKLLSKFEMIKRSDSAFFWEERDIMAFANSPWVVQLFYAFQDDRYLYMVMEYMPGGDLVNLMSNYDVPEKWAKFYTAEVVLALDAIHSMGLIHRDVKPDNMLLDKHGHLKLADFGTCMKMDETGMVHCDTAVGTPDYISPEVLKSQGGDGFYGRECDWWSVGVFLYEMLVGDTPFYADSLVGTYSKIMDHKNSLCFPEDAEISKHAKNLICAFLTDREVRLGRNGVEEIRQHPFFKNDQWHWDNIRETAAPVVPELSSDIDSSNFDDIEDDKGDVETFPIPKAFVGNQLPFIGFTYYRENLLLSDSPSCRETDSIQSRKNEESQEIQKKLYTLEEHLSNEMQAKEELEQKCKSVNTRLEKTAKELEEEITLRKSVESALRQLEREKALLQHKNAEYQRKADHEADKKRNLENDVNSLKDQLEDLKKRNQNSQISTEKVNQLQRQLDETNALLRTESDTAARLRKTQAESSKQIQQLESNNRDLQDKNCLLETAKLKLEKEFINLQSALESERRDRTHGSEIINDLQGRICGLEEDLKNGKILLAKVELEKRQLQERFTDLEKEKSNMEIDMTYQLKVIQQSLEQEEAEHKATKARLADKNKIYESIEEAKSEAMKEMEKKLLEERTLKQKVENLLLEAEKRCSLLDCDLKQSQQKINELLKQKDVLNEDVRNLTLKIEQETQKRCLTQNDLKMQTQQVNTLKMSEKQLKQENNHLMEMKMNLEKQNAELRKERQDADGQMKELQDQLEAEQYFSTLYKTQVRELKEECEEKTKLGKELQQKKQELQDERDSLAAQLEITLTKADSEQLARSIAEEQYSDLEKEKIMKELEIKEMMARHKQELTEKDATIASLEETNRTLTSDVANLANEKEELNNKLKDVQEQLSRLKDEEISAAAIKAQFEKQLLTERTLKTQAVNKLAEIMNRKEPVKRGNDTDVRRKEKENRKLHMELKSEREKLTQQMIKYQKELNEMQAQIAEESQIRIELQMTLDSKDSDIEQLRSQLQALHIGLDSSSIGSGPGDAEADDGFPESRLEGWLSLPVRNNTKKFGWVKKYVIVSSKKILFYDSEQDKEQSNPYMVLDIDKLFHVRPVTQTDVYRADAKEIPRIFQILYANEGESKKEQEFPVEPVGEKSNYICHKGHEFIPTLYHFPTNCEACMKPLWHMFKPPPALECRRCHIKCHKDHMDKKEEIIAPCKVYYDISTAKNLLLLANSTEEQQKWVSRLVKKIPKKPPAPDPFARSSPRTSMKIQQNQSIRRPSRQLAPNKPS [ROCK2] | 0.0267 | -0.132 | 0.406 | 1.46 | 49.8 °C | 49.4 °C
MAASRWARKAVVLLCASDLLLLLLLLPPPGSCAAEGSPGTPDESTPPPRKKKKDIRDYNDADMARLLEQWEKDDDIEEGDLPEHKRPSAPVDFSKIDPSKPESILKMTKKGKTLMMFVTVSGSPTEKETEEITSLWQGSLFNANYDVQRFIVGSDRAIFMLRDGSYAWEIKDFLVGQDRCADVTLEGQVYPGKGGGSKEKNKTKQDKGKKKKEGDLKSRSSKEENRAGNKREDL [MESDC2] | 0.269 | -0.0464 | 3.56 | 2.22 | 55.5 °C | 56.3 °C
MFSWVSKDARRKKEPELFQTVAEGLRQLYAQKLLPLEEHYRFHEFHSPALEDADFDNKPMVLLVGQYSTGKTTFIRHLIEQDFPGMRIGPEPTTDSFIAVMHGPTEGVVPGNALVVDPRRPFRKLNAFGNAFLNRFMCAQLPNPVLDSISIIDTPGILSGEKQRISRGYDFAAVLEWFAERVDRIILLFDAHKLDISDEFSEVIKALKNHEDKIRVVLNKADQIETQQLMRVYGALMWSLGKIINTPEVVRVYIGSFWSHPLLIPDNRKLFEAEEQDLFKDIQSLPRNAALRKLNDLIKRARLAKVHAYIISSLKKEMPNVFGKESKKKELVNNLGEIYQKIEREHQISPGDFPSLRKMQELLQTQDFSKFQALKPKLLDTVDDMLANDIARLMVMVRQEESLMPSQVVKGGAFDGTMNGPFGHGYGEGAGEGIDDVEWVVGKDKPTYDEIFYTLSPVNGKITGANAKKEMVKSKLPNTVLGKIWKLADVDKDGLLDDEEFALANHLIKVKLEGHELPADLPPHLVPPSKRRHE [EHD1] | 0.171 | -0.0648 | 2.25 | 2.22 | 50.6 °C | 50.5 °C
MSKSKDDAPHELESQFILRLPPEYASTVRRAVQSGHVNLKDRLTIELHPDGRHGIVRVDRVPLASKLVDLPCVMESLKTIDKKTFYKTADICQMLVSTVDGDLYPPVEEPVASTDPKASKKKDKDKEKKFIWNHGITLPLKNVRKRRFRKTAKKKYIESPDVEKEVKRLLSTDAEAVSTRWEIIAEDETKEAENQGLDISSPGMSGHRQGHDSLEHDELREIFNDLSSSSEDEDETQHQDEEDINIIDTEEDLERQLQDKLNESDEQHQENEGTNQLVMGIQKQIDNMKGKLQETQDRAKRQEDLIMKVENLALKNRFQAVLDELKQKEDREKEQLSSLQEELESLLEK [TAF7] | 0.55 | 0.081 | 1.09 | 3.64 | 52 °C | 51.6 °C
MSWLFGINKGPKGEGAGPPPPLPPAQPGAEGGGDRGLGDRPAPKDKWSNFDPTGLERAAKAARELEHSRYAKDALNLAQMQEQTLQLEQQSKLKEYEAAVEQLKSEQIRAQAEERRKTLSEETRQHQARAQYQDKLARQRYEDQLKQQQLLNEENLRKQEESVQKQEAMRRATVEREMELRHKNEMLRVEAEARARAKAERENADIIREQIRLKAAEHRQTVLESIRTAGTLFGEGFRAFVTDWDKVTATVAGLTLLAVGVYSAKNATLVAGRFIEARLGKPSLVRETSRITVLEALRHPIQVSRRLLSRPQDALEGVVLSPSLEARVRDIAIATRNTKKNRSLYRNILMYGPPGTGKTLFAKKLALHSGMDYAIMTGGDVAPMGREGVTAMHKLFDWANTSRRGLLLFVDEADAFLRKRATEKISEDLRATLNAFLYRTGQHSNKFMLVLASNQPEQFDWAINDRINEMVHFDLPGQEERERLVRMYFDKYVLKPATEGKQRLKLAQFDYGRKCSEVARLTEGMSGREIAQLAVSWQATAYASEDGVLTEAMMDTRVQDAVQQHQQKMCWLKAEGPGRGDEPSPS [ATAD3A] | -0.0262 | -0.0269 | -0.608 | 0.271 | 50.5 °C | 51 °C
